# From the DeepSol protein solubility set
# Test: soluble on expression in E. coli; label from the status in PepcDB or PDB records
row,Sequence,soluble on expression in E. coli
1,MSLNEQRFFRFLRERIGLDVESVGAPMVERALRQRCVAAGAMDLDDYWLRLQQSADEQQALIEAVIVPETWFFRYPESFTALASLAHKRLAQLAGARPLRLLSLPCSTGEEPYSLAMALFDAGMAPGAFLVDGMDISPSSVAKAGQAVYGRNAFRGSELGFRERYFDALDEGHRLHERVRQQVSLRVGNVLDPALASRDGLYDFVFCRNLLIYFDVPTQQRVFEVLKRLLHPQGVLFIGPAEGSLLARMGMRPLGIAQSFAYVRHEGDSAPLAAAPAQTAKRAFTTLPAPVYPQPSVPLPRSRRVLPVAARPARAREHSHEGASELLAGIARLANAGASEQARSECQRYLSQYPPSAQVYYWLGLLSDTEGDAQQALSHYRKALYLEPQHPEALVHLAALLAAQGDLAGARRLQERAARAGRESEREGHHHHHH,soluble
2,MANAADDRRPKYQRIADTLREAIRSGEYGPGDRLPGENDLMATHGVARMTARQALSVLRDEGVAEARKGAGVFVREFRPLRRRGIQRLARQQWGNGRSIWSADIEDRSLDVDQVTVSEEAAPDGVAAVLDLADGETVCVRRRRFVLDGKPVLLATSYLPAALVAGSAITQEDTGKGGTYARLAELGHGPVHFREEIRSRMPSKAEASQLSVAAGTPVILICRTAFTDEGRAVEINEMTLDAASYVLEYDFDA,not soluble
3,MGSDKIHHHHHHMLSLKNINFKGVKGINELELTLSDNPINVLIGTNGIGKTKALEALYTLLIFTNTAFQKYAMNGKDVVFNECLIANEQVIRIDNTESYTYIKQFFTNNKLSHSYPVIFIAAQNRGKIKSENSNSISPLGNADTRAYNYFRHIIRSMENDFSSLNMDMPIEEWIIQRANSSTSYQDEEDNRELELISLLKILNKIDERISCDKSTLKISGDNQVSILVDGKKTKLSALSSGFASLIKIIQSIIAGYSFFTNSRQIENVEGYVLIDEIESHLHLEWQTKILPILSEVFPYTRFIITTHSSLILSQLYTGSASRLVHEGSKIINEDIPNASNFTLIDLLQEAFDIDLNQIKISSTTAKHQERVKKAILDLLGA,not soluble
4,MPLLDIRHLTIEIDTPQGLVKAVDRMSLTMNEGEIRGLVGESGSGKSLVAKAIVGICKENWRVTADRMRLGNIDLLQLTPRERRRVIARDVAMIFQEPSTCLDPSEEVGRQLIESIPFRTFEGRWWERFTWRKKQAIALLHKVGIKDHKDIMSSYPYELTDGECQKVMIAMAIAAKPKLLIADEPTNDVDPITQSQILRLLSRMNQVNNTSILLIGHDLTTITQWADRITVMYCGQSVESAETAKIVAEPKHPYTAALLKAMPDFSDWIPHKQKLQSLPGSIPPLQHLPIGCRLGPRCPYAQRQCVEVPHSRWVKNHKFSCHFPLNMESPQ,not soluble
5,ADTRIGVTIYKYDDNFMSVVRKAIEKDGKSAPDVQLLMNDSQNDQSKQNDQIDVLLAKGVKALAINLVDPAAAGTVIEKARGQNVPVVFFNKEPSRKALDSYDKAYYVGTDSKESGVIQGDLIAKHWQANQGWDLNKDGKIQYVLLKGEPGHPDAEARTTYVVKELNDKGIQTEQLALDTAMWDTAQAKDKMDAWLSGPNANKIEVVIANNDAMAMGAVEALKAHNKSSIPVFGVDALPEALALVKSGAMAGTVLNDANNQAKATFDLAKNLAEGKGAADGTSWKIENKIVRVPYVGVDKDNLSEFTQK,soluble
6,MSLNTSRKERSVSTFSIVGYDPKTDELGIAVQSKFLGVGAIVPWAKAGVGAIATQSYANTSYGSKGLDLLARGKTAEETLALLINEDADRHLRQVGIVDAKGRAASFTGQGCYEWAGSMTGHCFAVQGNLLVSEETVKTMAQKFVQATGSLAERLLLTLEAGQCAGGDRRGKQSAALLIVKEKGGYGGFNDRLIDLRVDDHPEPIQELKRIFELQQLYFAKPKEQDQLPLTDDRISIIKSSLHSLGYLSLTQHWRDALQQFIATENLEGRMGTGTQTIDRVVFSFLQKKAKEEGHHHHHH,soluble
7,MGSDKIHHHHHHMRGSSNIPLDWDKLRIFHAAAEAGSFTHAADKLHLSQSAISRQVSALEQDVGVKLFHRHARGLILTEQGELLYRTAHDVLLKLETVKMQLTETTEKPSGKLRVTTTVGLGQGWLTDKVQEFLQLYPDMSIQLILDNEELDVNMRHADCAIRLRQPQQSDLIQRKLFTVHMHVYAAPSYINRYGEPQTIEDLDNHRIISFGEPAPNYLLDVNWLEVAGRSSDNRRIPHLQINSQTSIKRACLLGIGVACMPDYIVGRDPGLIQLPINAEVPSFDTYFCYPDEMKNAAKLKVFRDFIVSKARNWNF,not soluble
8,MSVNGAFSPCVVIPCYNHGAMMASVLVRLAPLALPVFIVDDGSDAATQHVLNLLAAENDGVTLIRLANNSGKGAAVMRGIEAVAQAGFSHALQVDADGQHQIEDAPLLLDEAKTHPDCLISGRPRYDDSVPKSRLYGRYVTHVWVWIETLSLSIKDSMCGFRVYPVAATVSLLSRKSLGRRMDFDTEIMVRLYWAGTPSRFIETAVTYPENGLSHFDALHDNLRISWMHTRLFFGMLPRIPVLLMRQRQQHWAGVSERKGLLGMRFMLAVYQRLGRGVFTLFLWPVIAFYWLTGRTARKASQSWLRQIGEYAHQQDILLPKPLNSYHHFLRFGQAMLDKIASWRGDLHWGRDIDFAPGAQEAIEHGRQKGQLILASHLGDIEVCRALAPQVSGLVINALVFTENSQRFKQVLEEIAPQAGVNLIPVSNIGPDTAIMLQQKLDAGEWVAIVGDRTAVHRQRGGVRRVVWSPFLGKEAPFPQGPFVLAAALRCPVLLMFVIREQKKLRVYCEPFADSITLPRPTRQQALQQVVDRYAERLAHYALKSPLDWFNFFDFWSLPDDDGRTAGKKESLEHHHHHH,not soluble
9,MKQPKVSVIVTCYNYATYLEGCLASILNQTYQDFELVIINDGSTDNTDEVISRFLDNDKVRYINQKNTGQAIATNNGIAAAAGELIAFLDADDLWEPTKLEKQVRLFNRDSIGVVYSRIRFMDAEGCTLDMQLEGKYYTPRSGRVTDALLFENFIPYSSTVVRKECFDKFGMFNPEYKNGLDWDLWLRISREYEFDFVDEYLLIYRIGHPGQLTSNVERSVRCADLIFDRFLEENPGIVPDSVVRKAMAYSYCRRGNQFRKIDRKRSNGFFLNALAKNPAEIGAYVGLVKNFLNMLEHHHHHH,not soluble
10,GPHSLRYFVTAVSRPGLGEPRFISVGYVDNTEFVRFDSDAENPRYEPRARWMEQEGPEYWERETQKAKGNEQSFRVDLRTLLGYYNQSKGGSHTIQVISGCEVGSDGRLLRGYQQYAYDGCDYIALNEDLKTWTAADMAALITKHKWEQAGEAERLRAYLEGTCVEWLRRYLKNGNATLLRTDSPKAHVTHHSRPEDKVTLRCWALGFYPADITLTWQLNGEELIQDMELVETRPAGDGTFQKWASVVVPLGKEQYYTCHVYHQGLPEPLTLRWEPPPST,soluble
11,MVKKAAATSKQATYHSDEIEMKEEVVLNTYDECTDYVEYDDTKQFDINEYCDQIQVAMVNESDDGMTLEFDITRIEAPIANALRRVLIAEVPTMALEKIYLYQNTSVIQDEVLCHRLGLLPLRVDPRGFQFPKEKVVGINEKGVDCDEEPEGDPAKNLIFKINVSCTKNRNAVPTATDPKQLYHNSSVYSRAFEWVPIADQKTQFTEEAHPRMVSDDILVAKLRPGQEIEASCHAVKGIGRDHAKFSPVATASYRLLPTIRLNAEISGEAAERLKSVFSEGVIAIEKKGAKRIAVVKDARKDTCSRNVFRHEDLSKVVQLGKNKQHFIFSVESTGALKSSELVVEACKVMEIKCRSLRKQIEALIQ,not soluble
12,MISVTFRQILGLVSLLCATWLYSQCRHIWLLAQDDFNEQFTNFLGEKWWSTDQLELCDDETKDTKWQKNDSICITYVYNMLPVDMEIISWAPTLVIYRNLMSPRQTASFLNFIEQRDLEIQKTSDFGTSIETTHRRANGSFIPPEDSNVTVEIKMQAQKRIPGLNLTVAEHFSALSYLPGGHYAVHYDYLDYRSKQDYDWWMNKTGNRIGTLIFVLKPAEKGGGTVFPSIGSTVRANAGDAFFWFNAQADEEKEMLSNHGGCPIYEGRKVIATIWIRAYNQRILPMAPAGSSIHASWLIPSLSNRFRPEMQTQSPVPN,not soluble
13,QVTVQSSPNFTQHVREQSLVTDQLSRRLIRTYQLYSRTSGKHVQVLANKRINAMAEDGDPFAKLIVETDTFGSRVRVRGAETGLYICMNKKGKLIAKSNGKGKDCVFTEIVLENNYTALQNAKYEGWYMAFTRKGRPRKGSKTRQHQREVHFMKRLPRGHHTTE,soluble
